Target: binary complex of FGFR1c ligand-binding domain with αKlotho ectodomain (murine; human) (UniProt O35082)
Assay: SPR; immobilized FGF23, αKlotho-FGFR1c complex compared with FGFR1c ligand-binding domain alone (FIGS. 10D and 10E)

Chain of binary complex of FGFR1c ligand-binding domain with αKlotho ectodomain (murine; human) (O35082 35-982, form in doubt, chain 1 of 2): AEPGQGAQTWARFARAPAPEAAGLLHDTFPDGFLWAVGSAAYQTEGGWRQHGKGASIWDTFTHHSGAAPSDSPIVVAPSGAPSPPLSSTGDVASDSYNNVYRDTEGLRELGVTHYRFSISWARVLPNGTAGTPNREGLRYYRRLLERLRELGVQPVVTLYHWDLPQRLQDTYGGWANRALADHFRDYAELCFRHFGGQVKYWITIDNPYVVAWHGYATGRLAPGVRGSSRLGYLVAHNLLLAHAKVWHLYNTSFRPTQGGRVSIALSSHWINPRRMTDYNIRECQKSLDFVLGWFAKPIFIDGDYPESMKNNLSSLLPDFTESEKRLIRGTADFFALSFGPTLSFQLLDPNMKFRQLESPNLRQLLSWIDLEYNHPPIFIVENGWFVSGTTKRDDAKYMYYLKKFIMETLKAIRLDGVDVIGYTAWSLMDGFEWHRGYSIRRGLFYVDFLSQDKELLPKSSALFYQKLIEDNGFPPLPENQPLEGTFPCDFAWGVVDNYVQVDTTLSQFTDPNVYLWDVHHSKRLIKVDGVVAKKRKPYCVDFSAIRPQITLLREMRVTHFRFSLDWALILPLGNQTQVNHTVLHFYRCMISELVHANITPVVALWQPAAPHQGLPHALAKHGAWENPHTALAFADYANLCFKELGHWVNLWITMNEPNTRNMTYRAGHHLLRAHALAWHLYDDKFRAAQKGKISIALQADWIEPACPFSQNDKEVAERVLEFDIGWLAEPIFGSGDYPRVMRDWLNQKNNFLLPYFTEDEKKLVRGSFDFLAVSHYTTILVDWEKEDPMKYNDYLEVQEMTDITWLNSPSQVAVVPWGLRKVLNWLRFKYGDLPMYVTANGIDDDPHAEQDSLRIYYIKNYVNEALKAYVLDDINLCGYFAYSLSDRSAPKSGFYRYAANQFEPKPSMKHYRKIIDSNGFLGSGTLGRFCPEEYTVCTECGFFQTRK
Chain of binary complex of FGFR1c ligand-binding domain with αKlotho ectodomain (murine; human) (P11362 142-365, form in doubt, chain 2 of 2, further chain): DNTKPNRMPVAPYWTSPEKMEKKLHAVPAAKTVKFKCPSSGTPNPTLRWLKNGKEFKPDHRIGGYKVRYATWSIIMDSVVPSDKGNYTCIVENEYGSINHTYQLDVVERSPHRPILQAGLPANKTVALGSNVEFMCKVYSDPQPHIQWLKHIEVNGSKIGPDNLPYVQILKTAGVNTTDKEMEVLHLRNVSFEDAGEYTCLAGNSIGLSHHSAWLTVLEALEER

fold enhancement of affinity against FGFR1c alone: > 20 fold
B1: N-terminally hexahistidine-tagged, mature form of human FGF23 (Y25 to I251), R176Q/R179Q (ligand, not shown: small tags and cut ends)
chain: YPNASPLLGSSWGGLIHLYTATARNSYHLQIHKNGHVDGAPHQTIYSALMIRSEDAGFVVITGVMSRRYLCMDFRGNIFGSHYFDPENCRFQHQTLENGYDVYHSPQYHFLVSLGRAKRAFLPGMNPPPYSQFLSRRNEIPLIHFNTPIPRQHTQSAEDDSERDPLNVLKPRARMTPAPASCSQELPSAEDNSPMASDPLGVVRGGRVNTHAGGTGPEGCRPFAKFI
